{
  "source": "patent US20190300625A1",
  "about": "(Regeneron, published 2019)",
  "key": {"[1]": {"target": "T1, hTMPRSS2 knob_mmh (W106-R255).mmh (human)", "T1 construct": "also called hTMPRSS2.mmh; HMM-hTMPRSS2", "T1 sequence (chain, as listed by the source limits assumed)": "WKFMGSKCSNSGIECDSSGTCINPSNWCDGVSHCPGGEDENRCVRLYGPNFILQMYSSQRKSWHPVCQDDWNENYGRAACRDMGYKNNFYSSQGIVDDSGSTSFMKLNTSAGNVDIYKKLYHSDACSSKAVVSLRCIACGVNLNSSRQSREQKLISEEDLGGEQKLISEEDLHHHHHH", "assay": "SPR (Biacore 4000), mAb captured by anti-mouse Fc, HMM-hTMPRSS2 as analyte, 25 C"}, "[2]": {"target": "T1, hTMPRSS2 knob_mmh (W106-R255).mmh", "assay": "SPR (Biacore 4000), mAb captured by anti-mouse Fc, HMM-hTMPRSS2 as analyte, 37 C"}, "[3]": {"target": "T2, mfTMPRSS2 knob_mmh (W106-R255).mmh (monkey)", "T2 construct": "also called mfTMPRSS2.mmh; HMM-mfTMPRSS2", "T2 sequence (chain, as listed by the source limits assumed)": "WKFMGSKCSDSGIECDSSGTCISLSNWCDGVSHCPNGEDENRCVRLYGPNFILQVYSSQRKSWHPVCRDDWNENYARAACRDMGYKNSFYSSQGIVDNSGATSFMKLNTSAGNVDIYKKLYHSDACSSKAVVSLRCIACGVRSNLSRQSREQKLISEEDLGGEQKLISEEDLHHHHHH", "assay": "SPR (Biacore 4000), mAb captured by anti-mouse Fc, HMM-mfTMPRSS2 as analyte, 25 C"}, "[4]": {"target": "T2, mfTMPRSS2 knob_mmh (W106-R255).mmh", "assay": "SPR (Biacore 4000), mAb captured by anti-mouse Fc, HMM-mfTMPRSS2 as analyte, 37 C"}},
  "data": [
    {"binder": "H2aM7017N (antibody, V domains shown, also called anti-TMPRSS2 monoclonal antibody (Biacore)) VH: QVQLVESGGGVVQPGRSLRLSCAASGFTFSSYGMHWVRQSPGKGLEWVAVIWNDGSYVYYADSVKGRFTISRDISKNTLFLQMNSLRAEDTAVYYCAREGEWVLYYFDYWGQGTLVTVSS VL: not shown", "values": [
      {"measurement": "Kd", "setting": "[1]", "value": 2.81, "unit": "nM"},
      {"measurement": "koff", "setting": "[1]", "value": 0.000745, "unit": "s⁻¹"},
      {"measurement": "kon", "setting": "[1]", "value": 265000, "unit": "M⁻¹ s⁻¹"},
      {"measurement": "t½", "setting": "[1]", "value": 15.5, "unit": "min"},
      {"measurement": "Kd", "setting": "[2]", "value": 9.31, "unit": "nM"},
      {"measurement": "koff", "setting": "[2]", "value": 0.00323, "unit": "s⁻¹"},
      {"measurement": "kon", "setting": "[2]", "value": 347000, "unit": "M⁻¹ s⁻¹"},
      {"measurement": "t½", "setting": "[2]", "value": 3.6, "unit": "min"},
      {"measurement": "Kd", "setting": "[3]", "value": 56, "unit": "nM"},
      {"measurement": "koff", "setting": "[3]", "value": 0.0157, "unit": "s⁻¹"},
      {"measurement": "kon", "setting": "[3]", "value": 280000, "unit": "M⁻¹ s⁻¹"},
      {"measurement": "t½", "setting": "[3]", "value": 0.7, "unit": "min"},
      {"measurement": "Kd", "setting": "[4]", "value": 140, "unit": "nM"},
      {"measurement": "koff", "setting": "[4]", "value": 0.0512, "unit": "s⁻¹"},
      {"measurement": "kon", "setting": "[4]", "value": 366000, "unit": "M⁻¹ s⁻¹"},
      {"measurement": "t½", "setting": "[4]", "value": 0.2, "unit": "min"}
    ]}
  ]
}
